Measured values taken from US20240101668A1.

Key:
[1] = target: huFLT3-M227 stably expressed on Ramos cells (human) (UniProt P36888); assay: FACS on cells
[2] = target: huFLT3-T227 stably expressed on Ramos cells (human) (UniProt P36888); assay: FACS on cells

| FACS geometric mean fold change over Jurkat parental [1] [fold] | FACS geometric mean fold change over Jurkat parental [2] [fold] | Binder |
| --- | --- | --- |
| < 2 | < 2 | Polypeptide No. 205 (scFv, V domains shown) VH: QVQLVQSGAEVKKPGSSVKVSCKASGGSFISHTFSWVRQAPGQGLEWMGGIIPISGTANYAQKFQGRVTITADESTSTAYMELSSLRSEDTAVYYCAKGRGQLVGGYFQHWGQGTLVTVSS VL: DIVMTQSPLSLPVTPGEPASISCRSSQSLLHSNGYNYLDWYLQKPGQSPQLLIYAASSLQSGVPDRFSGSGSGTDFTLKISRVEAEDVGVYYCMQALQTPLTFGQGTRLEIKR |
| < 2 | < 2 | Polypeptide No. 211 (scFv, V domains shown) VH: EVQLLESGGGLVQPGGSLRLSCAASGFTFSNHYMSWVRQAPGKGLEWVSAIGAGGGTYYADSVKGRFTISRDNSKNTLYLQMNSLRAEDTAVYYCAKSSGYSYGRRPFDYWGQGTLVTVSS VL: DIQMTQSPSSLSASVGDRVTITCRASQGISNNLAWYQQKPGKAPKLLIYAASTLHNGVPSRFSGSGSGTDFTLTISSLQPEDFATYYCQQYGRSPKTFGQGTKVEIKR |
| < 2 | – | Polypeptide No. 220 (scFv, V domains shown) VH: QVQLVQSGAEVKKPGASVKVSCKASGYTFTGYYMYWVRQAPGQGLEWMGIINPRGGITSYAQRFQGRVTMTRDTSTSTVYMELSSLRSEDTAVYYCARGSTSSGWPNGDMDVWGKGTTVTVSS VL: DIQMTQSPSSLSASVGDRVTITCRASQGIRNDLGWYQQKPGKAPKLLIYAASSLQSGVPSRFSGSGSGTDFTLTISSLQPEDFATYYCQQANRFPPTFGQGTKVEIKR |
| < 2 | < 2 | Polypeptide No. 230 (scFv, V domains shown) VH: QVQLVQSGAEVKKPGSSVKVSCKASGGTFSSNAINWVRQAPGQGLEWMGGIIPLFGTTNYAQKFQGRVTITADESTSTAYMELSSLRSEDTAVYYCARVLSGWYGTYYFDYWGQGTLVTVSS VL: EIVMTQSPATLSVSPGERATLSCRASQSVSADYIAWYQQKPGQAPRLLIYDVSTRASGIPARFSGSGSGTEFTLTISSLQSEDFAVYYCQHYGSSQVTFGQGTKVEIKR |
| – | < 2 | Polypeptide No. 286 (scFv, V domains shown) VH: QVQLVQSGAEVKKPGASVKVSCKASGYTFTSYGISWVRQAPGQGLEWMGWISPNSGVTNYAQKFQGRVTMTRDTSTSTVYMELSSLRSEDTAVYYCVSDDYGAFDYWGQGTLVTVSS VL: EIVMTQSPATLSVSPGERATLSCRASQSVSSSYLAWYQQKPGQAPRLLIYDVSTRASGIPARFSGSGSGTEFTLTISSLQSEDFAVYYCQQYNNWPYTFGQGTKLEIKR |
| – | < 2 | Polypeptide No. 245 (scFv, V domains shown) VH: QVQLVQSGAEVKKPGSSVKVSCKASGYTFTGFYIHWVRQAPGQGLEWMGGVIPFFSRTIYAQKFQGRVTITADESTSTAYMELSSLRSEDTAVYYCAYGANGHLYGMDAWGQGTTVTVSS VL: EIVMTQSPATLSVSPGERATLSCRASQSVSSSYLAWYQQKPGQAPRLLIYGASTRATGIPARFSGSGSGTEFTLTISSLQSEDFAVYYCQQYSSSPLTFGQGTKVEIKR |
| – | < 2 | Polypeptide No. 263 (scFv, V domains shown) VH: QVQLVQSGAEVKKPGSSVKVSCKASGGTFSSYAISWVRQAPGQGLEWMGGIIPIVGVANYAQKLQGRVTITADESTSTAYMELSSLRSEDTAVYYCAKDIGGYPSDAFDIWGQGTTVTVSS VL: EIVMTQSPATLSVSPGERATLSCRASQSVSSSYLAWYQQKPGQAPRLLIYDVSTRATGIPARFSGSGSGTEFTLTISSLQSEDFAVYYCQQYGSSPITFGQGTKVEIKR |
| < 2 | < 2 | Polypeptide No. 236 (scFv, V domains shown) VH: QVQLVQSGAEVKKPGSSVKVSCKASGGTFSSYAISWVRQAPGQGLEWMGGIIPILGIANYAQKFQGRVTITADESTSTAYMELSSLRSEDTAVYYCAHVDGYGMDVWGQGTTVTVSS VL: EIVMTQSPATLSVSPGERATLSCRASQSVSSNLAWYQQKPGQAPRLLIYDVSSRATGIPARFSGSGSGTEFTLTISSLQSEDFAVYYCQQLDAYPLTFGGGTKVEIKR |
| – | < 2 | Polypeptide No. 282 (scFv, V domains shown) VH: QVQLVQSGAEVKKPGASVKVSCKASGGTFSSYAISWVRQAPGQGLEWMGWMNPNSGDTGYAQKFQGRVTMTRDTSTSTVYMELSSLRSEDTAVYYCARDFEGGGWFDPWGQGTLVTVSS VL: EIVMTQSPATLSVSPGERATLSCRASRSISDYLAWYQQKPGQAPRLLIYDASSRATGIPARFSGSGSGTEFTLTISSLQSEDFAVYYCQQYYTTPLTFGQGTKVEIKR |
| – | < 2 | Polypeptide No. 276 (scFv, V domains shown) VH: QVQLVQSGAEVKKPGSSVKVSCKASGYTFTRFNIHWVRQAPGQGLEWMGWLNPFTGNTGYARKFQGRVTITADESTSTAYMELSSLRSEDTAVYYCASSSSWYGWFDPWGQGTLVTVSS VL: EIVMTQSPATLSVSPGERATLSCRASQSVSSYLAWYQQKPGQAPRLLIYDTSTRATGIPARFSGSGSGTEFTLTISSLQSEDFAVYYCQQYHSSPWTFGQGTKVEIKR |
| < 2 | < 2 | Polypeptide No. 232 (scFv, V domains shown) VH: QVQLVQSGAEVKKPGASVKVSCKASGYTFTSYGIHWVRQAPGQGLEWMGGIIPIFGTASYAQKFQGRVTMTRDTSTSTVYMELSSLRSEDTAVYYCTRSNGIAAAGTHWYFDLWGRGTLVTVSS VL: DIQMTQSPSSLSASVGDRVTITCRASQNIANSLNWYQQKPGKAPKLLIYAASSLQSGVPSRFSGSGSGTDFTLTISSLQPEDFATYYCQQYSSYPPTFGPGTKVDIKR |
| < 2 | < 2 | Polypeptide No. 201 (scFv, V domains shown) VH: QVQLVQSGAEVKKPGASVKVSCKASGGTFSSDGISWVRQAPGQGLEWMGWISAYHGHTNYAQKFQGRVTMTRDTSTSTVYMELSSLRSEDTAVYYCARGGKHSGSHRSYYYGMDVWGQGTTVTVSS VL: DIQMTQSPSSLSASVGDRVTITCRASHNIGNKLAWYQQKPGKAPKLLIYGATTLQSGVPSRFSGSGSGTDFTLTISSLQPEDFATYYCQQANSFPRTFGPGTKVDIKR |
| – | < 2 | Polypeptide No. 250 (scFv, V domains shown) VH: QVQLVQSGAEVKKPGSSVKVSCKASGYTLTSFAMHWVRQAPGQGLEWMGRIIPMSGTANYAQKFQGRVTITADESTSTAYMELSSLRSEDTAVYYCASTSPDQYYYGMDVWGQGTTVTVSS VL: EIVMTQSPATLSVSPGERATLSCRASQSVGSSSLAWYQQKPGQAPRLLIYGASTRATGIPARFSGSGSGTEFTLTISSLQSEDFAVYYCQQYGSSPYTFGQGTKVEIKR |
| – | < 2 | Polypeptide No. 268 (scFv, V domains shown) VH: QVQLVQSGAEVKKPGSSVKVSCKASGGTFSTYALSWVRQAPGQGLEWMGGVIPVFGTTDYAHKFQGRVTITADESTSTAYMELSSLRSEDTAVYYCASMIIFGAGGWDAYYFQEWGQGTLVTVSS VL: EIVMTQSPATLSVSPGERATLSCRASQSVNNNQLAWYQQKPGQAPRLLIYDTSSRATGIPARFSGSGSGTEFTLTISSLQSEDFAVYYCQQYDTSPYTFGQGTKVEIKR |
| – | < 2 | Polypeptide No. 281 (scFv, V domains shown) VH: QVQLVQSGAEVKKPGASVKVSCKASGYTFNSYGISWVRQAPGQGLEWMGIINPTGGSTTYAQKFQGRVTMTRDTSTSTVYMELSSLRSEDTAVYYCAKDPFVMDVWGQGTTVTVSS VL: EIVMTQSPATLSVSPGERATLSCRASQSVSSSYLAWYQQKPGQAPRLLIYDASARAAGIPARFSGSGSGTEFTLTISSLQSEDFAVYYCQQYYSTPYTFGQGTKLEIKR |
| < 2 | < 2 | Polypeptide No. 209 (scFv, V domains shown) VH: EVQLLESGGGLVQPGGSLRLSCAASGFAFSSYVLHWVRQAPGKGLEWVAGIWVDGHNKDYADSVKGRFTISRDNSKNTLYLQMNSLRAEDTAVYYCAREFGAAGSFQHWGQGTLVTVSS VL: DIQMTQSPSSLSASVGDRVTITCRASQSISTWLAWYQQKPGKAPKLLIYDASKLETGVPSRFSGSGSGTDFTLTISSLQPEDFATYYCQQSYTTPYTFGQGTKVEIKR |
| – | < 2 | Polypeptide No. 226 (scFv, V domains shown) VH: QVQLVQSGAEVKKPGASVKVSCKASGYTFTGYYMHWVRQAPGQGLEWMGIIDPSGGSTSYAQKFQGRVTMTRDTSTSTVYMELSSLRSEDTAVYYCARDRSLLWSGVGGMDVWGQGTTVTVSS VL: DIQMTQSPSSLSASVGDRVTITCRASQGISNYLAWYQQKPGKAPKLLIYGASNLQSGVPSRFSGSGSGTDFTLTISSLQPEDFATYYCQQSYGTPYTFGQGTKLEIKR |
| < 2 | < 2 | Polypeptide No. 227 (scFv, V domains shown) VH: QVQLVQSGAEVKKPGSSVKVSCKASGYTLNELFMHWVRQAPGQGLEWVGGIIPMSGTTFYAQTFQGRVTITADESTSTAYMELSSLRSEDTAVYYCAKGVRQYSYGRYYYGMDVWGQGTLVTVSS VL: DIQMTQSPSSLSASVGDRVTITCRASQSVSSYLNWYQQKPGKAPKLLIYGASNLQSGVPSRFSGSGSGTDFTLTISSLQPEDFATYYCQQSYTTPWTFGQGTRLEIKR |
| – | < 2 | Polypeptide No. 224 (scFv, V domains shown) VH: QVQLVQSGAEVKKPGSSVKVSCKASGYTFTGYYMHWVRQAPGQGLEWMGVINPIYGTANYALKFQGRVTITADESTSTAYMELSSLRSEDTAVYYCAKAISSGWSNDAFDIWGQGTMVTVSS VL: EIVMTQSPATLSVSPGERATLSCRASQSVSSDFLAWYQQKPGQAPRLLIYDTSSRASGIPARFSGSGSGTEFTLTISSLQSEDFAVYYCQQYAGPPTFGQGTRLEIKR |
| – | < 2 | Polypeptide No. 225 (scFv, V domains shown) VH: QVQLVQSGAEVKKPGSSVKVSCKASGYTLTELSIHWVRQAPGQGLEWMGGIVPMSGTASYAQKFQGRVTITADESTSTAYMELSSLRSEDTAVYYCARRRDGYNSWGQGTLVTVSS VL: DIVMTQSPDSLAVSLGERATINCKSSQSLLYGSKNYISWYQQKPGQPPKLLIYSSSTRESGVPDRFSGSGSGTDFTLTISSLQAEDVAVYYCQQYYTTPYTFGQGTKVEIKR |
